The values that follow come from US20240247069A1 (Regeneron, published 2024).

The target of experiment [1] is T1, human FGFR3b-ecto.mmH (human, UniProt P22607 23-806).
T1 construct: also called hFGFR3b (mmh); hFGFR3b-mmh; not shown: mmh tag
Description: Biacore SPR, 25 C, mmh-tagged FGFR3. For orientation: In SPR one partner is held on a chip, and binding of the other changes the refractive index at the surface.

The target of experiment [2] is T2, mouse FGFR3b-ecto.mmH (mouse, UniProt Q61851 21-801).
T2 construct: also called moFGFR3b (mmh); monomeric mouse FGFR3b; not shown: mmh tag
T2 sequence (Q61851 other isoform, or with tags, fused parts or gaps): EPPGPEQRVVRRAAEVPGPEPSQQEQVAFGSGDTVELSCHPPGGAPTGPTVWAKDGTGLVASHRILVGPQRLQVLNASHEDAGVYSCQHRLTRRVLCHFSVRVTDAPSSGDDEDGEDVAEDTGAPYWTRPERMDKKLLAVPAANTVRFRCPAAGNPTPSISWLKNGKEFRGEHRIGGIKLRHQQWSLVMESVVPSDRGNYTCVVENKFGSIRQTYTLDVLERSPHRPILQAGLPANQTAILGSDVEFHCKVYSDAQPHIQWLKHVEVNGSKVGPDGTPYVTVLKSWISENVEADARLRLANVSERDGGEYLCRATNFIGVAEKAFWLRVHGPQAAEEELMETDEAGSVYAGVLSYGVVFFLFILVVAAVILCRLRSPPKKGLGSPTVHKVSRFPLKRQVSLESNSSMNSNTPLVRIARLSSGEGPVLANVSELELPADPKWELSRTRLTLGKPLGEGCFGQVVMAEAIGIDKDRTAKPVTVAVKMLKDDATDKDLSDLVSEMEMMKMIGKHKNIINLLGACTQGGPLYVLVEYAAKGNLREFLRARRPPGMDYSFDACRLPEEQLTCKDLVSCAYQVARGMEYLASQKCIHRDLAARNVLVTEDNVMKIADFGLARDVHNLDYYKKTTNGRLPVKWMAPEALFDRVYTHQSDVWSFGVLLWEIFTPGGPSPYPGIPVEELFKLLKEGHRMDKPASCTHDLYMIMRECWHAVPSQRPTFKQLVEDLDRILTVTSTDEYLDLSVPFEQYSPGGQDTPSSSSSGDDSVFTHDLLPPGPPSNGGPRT
The experiment can be described thus: Biacore SPR, 25 C, mmh-tagged FGFR3.

T1 sequence (P22607 other isoform, or with tags, fused parts or gaps): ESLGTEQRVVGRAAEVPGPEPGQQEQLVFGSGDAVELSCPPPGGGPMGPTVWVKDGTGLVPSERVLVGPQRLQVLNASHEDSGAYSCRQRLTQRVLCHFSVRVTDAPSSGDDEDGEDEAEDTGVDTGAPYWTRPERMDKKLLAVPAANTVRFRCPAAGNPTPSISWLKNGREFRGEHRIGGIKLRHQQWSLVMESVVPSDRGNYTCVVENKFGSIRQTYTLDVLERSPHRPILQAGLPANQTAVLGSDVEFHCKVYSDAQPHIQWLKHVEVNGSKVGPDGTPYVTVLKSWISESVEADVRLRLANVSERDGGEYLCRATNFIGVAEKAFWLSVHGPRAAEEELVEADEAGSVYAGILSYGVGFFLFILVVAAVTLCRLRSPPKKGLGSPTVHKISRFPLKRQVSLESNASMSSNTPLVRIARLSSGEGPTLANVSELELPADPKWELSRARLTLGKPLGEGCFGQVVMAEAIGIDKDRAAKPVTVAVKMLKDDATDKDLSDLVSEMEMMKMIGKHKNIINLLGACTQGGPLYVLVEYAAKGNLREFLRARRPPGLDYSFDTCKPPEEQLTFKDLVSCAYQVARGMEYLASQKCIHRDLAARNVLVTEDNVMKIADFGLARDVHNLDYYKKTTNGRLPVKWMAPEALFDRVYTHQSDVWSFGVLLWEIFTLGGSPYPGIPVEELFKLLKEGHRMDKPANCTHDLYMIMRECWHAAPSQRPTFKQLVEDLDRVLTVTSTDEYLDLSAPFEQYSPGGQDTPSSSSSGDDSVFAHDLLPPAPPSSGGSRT

B1: H4H30063P (antibody, V domains shown)
VH: QVQLQESGPGLVKPSETLSLTCTVSGDSINSYFWSWIRQLPGKELEWIGHIYSSGSTRYNPSLQSRVTISIDTSKNQFSLKLSSVTAADTAVYYCARGASAVDYWGQGTLVTVSS
VL: EIVLTQSPGTLSLSPGERATLSCRTSQSISSGYLAWYQQKPGQAPRLLIYGASRRATGIPDRFSGSGSGTDFTLTISRLEPEDFVVYYCQQYGSSPYTFGQGTKLEIKR
For B1, the Kd (as a rule, the concentration at which binding is half-saturated) in experiment [1] was determined as 1.8 nM; in experiment [2] it was 1.27 nM.
